Tests used:
[1] = system: alkaline phosphatase translocation in E. coli JM109 (DE3); experiment: Induction and transport of alkaline phosphatase under phosphate starvation (immunoblot); format: cell-based, Escherichia coli; conditions: low phosphate (50 μM), cells harvested at the two growth peaks
Source text: The directionality of the distribution of Bce44B in the cytoplasmic membrane and the capability of the bacterium to recognize and integrate Bce44B into the membrane raised the possibility that Bce44B may be functional as a foreign component of the bacterial protein transport apparatus. Functionality of Bce44B was therefore assessed by monitoring two transported bacterial proteins, alkaline phosphatase and , β-lactamase. Alkaline phosphatase is a single copy gene and is transported into the periplasm upon induction by phosphate starvation (50 μM) (Torriani et al. (1960) Biochim. Biophys. Acta. 38:460). The growth characteristics of Bce44B-containing bacteria were compared to those of a strain expressing Oee1-Dhfr, a chimeric chloroplast protein precursor. The expression vector used in the Oee1-Dhfr transformed strain was the same as the one in the Bce44B transformed cells. Growth was monitored in M9 minimal media with growth-permissive phosphate levels or with low phosphate levels (50 μM).
The induction and analysis of alkaline phosphatase was performed as described by Torniani et al. (1960) Biochim. Biophys. Acta. 38:460. […]

Brassica napus = experiment: Seed size of transgenic plants carrying the CaMV-Bce44B-NOS transgene; format: in vivo; conditions: primary generation of transgenic plants
Source text: (§1) Transgenic plants (Brassica napus, Arabidopsis thaliana and Lycopersicon esculentum) with altered plastid protein transport capacity were produced by introducing a transgene construct consisting of DNA encoding the Bce44B protein and a 5′ untranslated region immediately upstream of the Bce44B coding sequence. Expression of the construct was obtained by linking the cauliflower mosaic virus 35S promoter (Odell, J. T. et al. (1985) Nature 313:810) upstream. Transcriptional termination was facilitated by the gene encoding nopaline synthase (NOS) found in Agrobacterium Ti plasmids or their derivatives such as pBI101 (Clontech). Construction of the 35S CAMV-Bce44B-NOS transgene construct is diagrammed in FIG. 6.
(§2) Agrobacterium strains containing the pEND4K-CAMV-Bce44B-NOS plasmid were used to transform plants following a leaf disc transformation protocol, such as the one described by Horsch et al. (1985) Science 227:1229), or by in planta methods which can include the seed transformation protocol reported by Feldmann and Marks (1987) Mol. Gen. Genet. […]

Lycopersicon esculentum = experiment: as above; format: in vivo; conditions: primary generation of transgenic plants
Source text: as §1, §2

B1: Bce44B: plastid transport protein, Brassica napus 44 kDa chloroplast envelope protein, member of Com44/Cim44, encoded by SEQ ID NO:1 (protein)
chain: MQTAMKTMMNQMNTQNSQFNNPGFPTGAGAGAGSPFPFPFPPQTSPTTSPFQPQSQSSGATVDLTATKVDRPPVSKPQPTPIPPTKSIEVYKPSVVVEENKAMKEEKNYAFEDVSPEETTKESPFSNYEEVSETSAPKETRLFDDVLQNGAAPANGATASDVFQSLGAGKGWAGGSVEVLEKMIEYPTFQKMLYPHLPEEMRNPESFKWVRKNPQYRQQLQDMLNNMSESGEWDKRMTETLKNFDPNSPEVKQGFDQLGLTPEEVISKIMENPDVSMAFQNPRVEAALMDCSENPMNIMKYQNDKEVMDVFNKISQLFPGLTG
level of processed alkaline phosphatase relative to Oee1-Dhfr-expressing cells [1]: higher level | seed size relative to wildtype counterparts or pEND4K-only control plants (Brassica napus): approximately twice | seed size relative to wildtype counterparts or pEND4K-only control plants (Lycopersicon esculentum): approximately twice

— patent US6353153B1, “Enhanced transport with a plastid membrane transport protein” (priority 1996, dated 2002)
